Measurements taken from patent publication US20230051538A1.

Tests used:
[1] = molecular target: alpha-synuclein monomer (UniProt P37840); assay: SPR, antibody immobilized, steady state fitting
[2] = molecular target: alpha-synuclein physiological tetramer (UniProt P37840); assay: SPR, antibody immobilized, steady state fitting
[3] = molecular target: alpha-synuclein sonicated preformed fibrils (soluble fibrils) (human) (UniProt P37840); assay: SPR, antibody immobilized, kinetic fitting, 1:1 model
[4] = molecular target: alpha-synuclein oligomers (UniProt P37840); assay: as above
[5] = molecular target: alpha-synuclein in Lewy Body Disease (LBD/DLB) brain (human) (UniProt P37840); assay: dot blot signal on LBD brain extract over control brain extract

Q: Which results are given for “NI-202.12F4 (Creative Biolabs) (antibody)”?
A: Kd [1]: 8.6 µM; Kd [2]: 14 µM; Kd [3]: 12 nM; koff [3]: 3.75e-05 s⁻¹; kon [3]: 3100 M⁻¹ s⁻¹; Kd [4]: 131 nM; koff [4]: 0.001 s⁻¹; kon [4]: 7640 M⁻¹ s⁻¹

Q: How did the Kd [1] turn out when “Prasinezumab, Human IgG, PRX002/RG7935, Creative Biolabs (antibody)” was run?
A: The Kd was 0.1 µM.

Q: What about the Kd [2] of the same substance?
A: Its Kd is 0.05 µM.

Q: And the Kd [3]?
A: The Kd was 11 nM.

Q: And the koff [3]?
A: The koff was 0.000209 s⁻¹.

Q: What about the kon [3] of the same substance?
A: Its kon is 19500 M⁻¹ s⁻¹.

Q: And the Kd [4]?
A: The Kd was 72 nM.

Q: What about the koff [4] of the same substance?
A: Its koff is 0.00181 s⁻¹.

Q: What about the kon [4] of the same substance?
A: Its kon is 25100 M⁻¹ s⁻¹.

Q: Which Fold of reactivity LBD vs. Control (LBD / Control) [5] does the source give for “Syn-F1 aggregation/fibril preferring antibody” here?
A: The Fold of reactivity LBD vs. Control (LBD / Control) was 3.8 fold.

Q: How did the Fold of reactivity LBD vs. Control (LBD / Control) [5] turn out when “pan-Alpha Syn Antibody (4D6) (Biolegend)” was run?
A: The Fold of reactivity LBD vs. Control (LBD / Control) was 2.2 fold.
